The record followed here is PMC8121907.

The target of experiment [1] is Vip3Bc1 (wild type, full length, unprocessed) (Bacillus thuringiensis). Description: SEC; Superose 6 increase 10/300 GL, 25 mM TrisHCl pH 7.5, 150 mM NaCl; undigested Vip3Bc1 loaded at 1 mg/mL. (In gel filtration, larger molecules generally elute earlier.)
For experiment [2] the target is unchanged. Put plainly: cryo-EM structure; single particle cryoEM of undigested Vip3Bc1, C2 symmetry applied, global resolution 3.9 Å.
Experiment [3] concerns the target activated Vip3Bc1 (Vip3Bc1^act), trypsin-digested Vip3Bc1 (Bacillus thuringiensis). Description: cryo-EM structure; single particle cryoEM of trypsin-digested Vip3Bc1^act, tilted collection, C4 symmetry applied, global resolution 4.8 Å; model built by homology.

In general, stoichiometry N refers to a count of units in the complex or per binding partner.

Regarding “Vip3Bc1 (wild type, full length, unprocessed) (natural protein)”, the stoichiometry N in experiment [1] and in experiment [2] was 4 throughout. Consider “activated Vip3Bc1 (Vip3Bc1^act), trypsin-digested Vip3Bc1 (complex)”, for which the stoichiometry N in experiment [3] was 4.
